± gives the standard deviation of the averaged measurements.
Test: total protein half-life in vivo (active degradation + dilution); higher = more stable protein
[1] = E. coli NCM3722 delta-clpP delta-lon delta-hslV, growth: N-lim chemostat, doubling time 6 h
[2] = E. coli NCM3722 delta-clpP, growth: N-lim chemostat, doubling time 6 h
[3] = E. coli NCM3722 delta-hslV, growth: N-lim chemostat, doubling time 6 h
[4] = E. coli NCM3722 delta-lon, growth: N-lim chemostat, doubling time 6 h
[5] = E. coli NCM3722 delta-smpB, growth: N-lim chemostat, doubling time 6 h
[6] = wild type E. coli NCM3722, growth: N-lim chemostat, doubling time 6 h
[7] = wild type E. coli NCM3722, growth: P-lim chemostat, doubling time 6 h
[8] = wild type E. coli NCM3722, growth: P-lim chemostat, doubling time 12 h
[9] = wild type E. coli NCM3722, growth: C-lim chemostat, doubling time 3 h
[10] = wild type E. coli NCM3722, growth: C-lim chemostat, doubling time 12 h
[11] = wild type E. coli NCM3722, growth: N-lim chemostat, doubling time 12 h
[12] = wild type E. coli NCM3722, growth: C-lim chemostat, doubling time 6 h

MTNRISRLKTALFANTREISLERALLYTASHRQTEGEPVILRRAKATAYILEHVEISIRDEELIAGNRTVKPRAGIMSPEMDPYWLLKELDQFPTRPQDRFAISEEDKRIYREELFPYWEKRSMKDFINGQMTDEVKAATNTQIFSINQTDKGQGHIIIDYPRLLNHGLGELVAQMQQHCQQQPENHFYQAALLLLEASQKHILRYAELAETMAANCTDAQRREELLTIAEISRHNAQHKPQTFWQACQLFWYMNIILQYESNASSLSLGRFDQYMLPFYQTSLTQGEDAAFLKELLESLWVKCNDIVLLRSTSSARYFAGFPTGYTALLGGLTENGRSAVNVLSFLCLDAYQSVQLPQPNLGVRTNALIDTPFLMKTAETIRFGTGIPQIFNDEVVVPAFLNRGVSLEDARDYSVVGCVELSIPGRTYGLHDIAMFNLLKVMEICLHENEGNAALTYEGLLEQIRAKISHYITLMVEGSNICDIGHRDWAPVPLLSSFISDCLEKGRDITDGGARYNFSGVQGIGIANLSDSLHALKGMVFEQQRLSFDELLSVLKANFATPEGEKVRARLINRFEKYGNDIDEVDNISAELLRHYCKEVEKYQNPRGGYFTPGSYTVSAHVPLGSVVGATPDGRFAGEQLADGGLSPMLGQDAQGPTAVLKSVSKLDNTLLSNGTLLNVKFTPATLEGEAGLRKLADFLRAFTQLKLQHIQFNVVNADTLREAQQRPQDYAGLVVRVAGYSAFFVELSKEIQDDIIRRTAHQL
total protein half-life in vivo [1]: 5.49 ± 0.94 h | total protein half-life in vivo [2]: 3.15 ± 0.29 h

MTNSNRIKLTWISFLSYALTGALVIVTGMVMGNIADYFNLPVSSMSNTFTFLNAGILISIFLNAWLMEIVPLKTQLRFGFLLMVLAVAGLMFSHSLALFSAAMFILGVVSGITMSIGTFLVTQMYEGRQRGSRLLFTDSFFSMAGMIFPMIAAFLLARSIEWYWVYACIGLVYVAIFILTFGCEFPALGKHAPKTDAPVEKEKWGIGVLFLSVAALCYILGQLGFISWVPEYAKGLGMSLNDAGTLVSNFWMSYMVGMWAFSFILRFFDLQRILTVLAGLAAILMYVFNTGTPAHMAWSILALGFFSSAIYTTIITLGSQQTKVPSPKLVNFVLTCGTIGTMLTFVVTGPIVEHSGPQAALLTANGLYAVVFVMCFLLGFVSRHRQHNTLTSH
total protein half-life in vivo [1]: 5.5 h | total protein half-life in vivo [2]: 5.55 h | total protein half-life in vivo [3]: 5.855 ± 0.027 h | total protein half-life in vivo [4]: 5.47 ± 0.58 h | total protein half-life in vivo [5]: 5.72 ± 0.19 h | total protein half-life in vivo [6]: 6.5 ± 0.71 h | total protein half-life in vivo [7]: 6.42 ± 1.5 h | total protein half-life in vivo [8]: 13.3 h

MTNYRVESSSGRAARKMRLALMGPAFIAAIGYIDPGNFATNIQAGASFGYQLLWVVVWANLMAMLIQILSAKLGIATGKNLAEQIRDHYPRPVVWFYWVQAEIIAMATDLAEFIGAAIGFKLILGVSLLQGAVLTGIATFLILMLQRRGQKPLEKVIGGLLLFVAAAYIVELIFSQPNLAQLGKGMVIPSLPTSEAVFLAAGVLGATIMPHVIYLHSSLTQHLHGGSRQQRYSATKWDVAIAMTIAGFVNLAMMATAAAAFHFSGHTGVADLDEAYLTLQPLLSHAAATVFGLSLVAAGLSSTVVGTLAGQVVMQGFIRFHIPLWVRRTVTMLPSFIVILMGLDPTRILVMSQVLLSFGIALALVPLLIFTSDSKLMGDLVNSKRVKQTGWVIVVLVVALNIWLLVGTALGL [P0A769]
total protein half-life in vivo [1]: 2.46 h | total protein half-life in vivo [2]: 3.02 h | total protein half-life in vivo [3]: 2.87 h | total protein half-life in vivo [5]: 2.15 ± 0.48 h | total protein half-life in vivo [9]: 1.29 h | total protein half-life in vivo [10]: 3.66 h | total protein half-life in vivo [6]: 2.23 ± 1.2 h | total protein half-life in vivo [11]: 3.65 ± 1.2 h | total protein half-life in vivo [7]: 2.19 h

MTPLVKDIIMSSTRMPALFLGHGSPMNVLEDNLYTRSWQKLGMTLPRPQAIVVVSAHWFTRGTGVTAMETPPTIHDFGGFPQALYDTHYPAPGSPALAQRLVELLAPIPVTLDKEAWGFDHGSWGVLIKMYPDADIPMVQLSIDSSKPAAWHFEMGRKLAALRDEGIMLVASGNVVHNLRTVKWHGDSSPYPWATSFNEYVKANLTWQGPVEQHPLVNYLDHEGGTLSNPTPEHYLPLLYVLGAWDGQEPITIPVEGIEMGSLSMLSVQIG
total protein half-life in vivo [2]: 3.18 h | total protein half-life in vivo [9]: 2.85 h | total protein half-life in vivo [12]: 5.76 h | total protein half-life in vivo [10]: 11.3 h | total protein half-life in vivo [6]: 3.76 h | total protein half-life in vivo [7]: 5.45 h | total protein half-life in vivo [8]: 10.5 ± 0.65 h

MTPWFLYLIRTADNKLYTGITTDVERRYQQHQSGKGAKALRGKGELTLVFSAPVGDRSLALRAEYRVKQLTKRQKERLVAEGAGFAELLSSLQTPEIKSD
total protein half-life in vivo [1]: 6.282 ± 0.0083 h | total protein half-life in vivo [7]: 1.75 h

MTQANLSETLFKPRFKHPETSTLVRRFNHGAQPPVQSALDGKTIPHWYRMINRLMWIWRGIDPREILDVQARIVMSDAERTDDDLYDTVIGYRGGNWIYEWATQAMVWQQKACAEDDPQLSGRHWLHAATLYNIAAYPHLKGDDLAEQAQALSNRAYEEAAQRLPGTMRQMEFTVPGGAPITGFLHMPKGDGPFPTVLMCGGLDAMQTDYYSLYERYFAPRGIAMLTIDMPSVGFSSKWKLTQDSSLLHQHVLKALPNVPWVDHTRVAAFGFRFGANVAVRLAYLESPRLKAVACLGPVVHTLLSDFKCQQQVPEMYLDVLASRLGMHDASDEALRVELNRYSLKVQGLLGRRCPTPMLSGYWKNDPFSPEEDSRLITSSSADGKLLEIPFNPVYRNFDKGLQEITDWIEKRLC
total protein half-life in vivo [1]: 5.5 ± 0.92 h | total protein half-life in vivo [2]: 5.97 ± 1.6 h | total protein half-life in vivo [3]: 3.64 ± 0.2 h | total protein half-life in vivo [4]: 3.85 ± 0.3 h | total protein half-life in vivo [5]: 3.78 ± 0.053 h | total protein half-life in vivo [9]: 2.32 ± 0.07 h | total protein half-life in vivo [12]: 3.76 ± 0.11 h | total protein half-life in vivo [10]: 4.98 ± 0.59 h | total protein half-life in vivo [6]: 3.52 ± 0.098 h | total protein half-life in vivo [11]: 5.5 ± 0.077 h | total protein half-life in vivo [7]: 4.41 ± 0.33 h | total protein half-life in vivo [8]: 7.49 ± 0.46 h

MTQDELKKAVGWAALQYVQPGTIVGVGTGSTAAHFIDALGTMKGQIEGAVSSSDASTEKLKSLGIHVFDLNEVDSLGIYVDGADEINGHMQMIKGGGAALTREKIIASVAEKFICIADASKQVDILGKFPLPVEVIPMARSAVARQLVKLGGRPEYRQGVVTDNGNVILDVHGMEILDPIAMENAINAIPGVVTVGLFANRGADVALIGTPDGVKTIVK [P0A7Z0]
total protein half-life in vivo [1]: 4.63 ± 0.6 h | total protein half-life in vivo [2]: 3.964 ± 0.033 h | total protein half-life in vivo [3]: 4.16 ± 0.58 h | total protein half-life in vivo [4]: 4.46 ± 0.19 h | total protein half-life in vivo [5]: 4.21 ± 0.072 h | total protein half-life in vivo [9]: 2.89 ± 0.12 h | total protein half-life in vivo [12]: 5.36 ± 0.4 h | total protein half-life in vivo [10]: 9.4966 ± 0.0081 h | total protein half-life in vivo [6]: 4.01 ± 0.3 h | total protein half-life in vivo [11]: 6.79 ± 0.038 h | total protein half-life in vivo [7]: 5.1 ± 0.3 h | total protein half-life in vivo [8]: 11.6 ± 0.7 h
